Test results reported in the DeepSol protein solubility set.

Test: soluble on expression in E. coli; label from the status in PepcDB or PDB records

Sequence | soluble on expression in E. coli
MGSFQAVAPTRLYRMIADQIAGRIRAGDFPAGGRLPAERELAEQLQVSRASVREALIALEIEGYVEVRVGTGVFVAAPRADGDYGVAPAPQPGHTDIGPFDLLDTRLLLEPECASLAAQKASPAQIAAISSAHAAMSLSDSPGAHDQAFHGAIAAACGNAALAAAISHIWHLSATSPVFSRLEQHFVTTKVWEAAEREHERILAAIVDRDPIRARHAMHDHLVGILARLREDFGSGAIR | not soluble
MGSDKIHHHHHHMFAGAWKNYRNILCVRPDNMGDVLMSQPAMRALKESVPGRKITLLTSTAGACIAPFIPEVDETIPFDVPWVKTTETNGAQRLLALAGELLALQLDAAVIFTVYSQNPLPAGMLCYLAGIKAVLGYCRENPYQLINQWVPDREPLDYVVHEVERQLRLVEMAGAKTSDTRLLLKIPEETRKEATDRVWEILNVAGIRAGMGWLVLHAGVSEEKRLYPARDYITACQSLIRQGYKILLTGSGSERDYVDQIARQLSDAAINVAGELSIAELIVLVEAAPVLISNNTGPVHIATAVGTPVVVLYAMTNPQHTPWQVPSKVLYFEVLPELRTKNQLLQSFPGSSTPRASPEAIVAAVGELVSPRRKHGSFIPSPLRNPVPTCNSLPDTALAACFTPHNEYGMCPPIRYGEDV | not soluble
MEAVQSSGRRMVHAIVWRYFEPRLRGSSVSNPGSNLVRFSEFCRGSMGFHICRLCDQASQWLSLDRSTSQWLSLDRSTVTTAFVWTDAFTTGTAGFNWDNKQPDNKDLNQPCAIVLAAHAPIHFQSYQFQPAMMDDAECAADSVASMGRTISGYVCGKPARQ | not soluble
MGHHHHHHSHMIGSGLSDLFDLTSGVGTLSGSYVAPKAVWLPAMKAKGLEISGTFTRQVGSISMDLQLTNKALQVMTDFAIQFNRNSFGLAPAAPLQVHAPLSPNQTVEISLPLSTVGSVMKMEPLNNLQVAVKNNIDVFYFSTLYPLHILFVEDGKMDRQMFLATWKDIPNENEAQFQIRDCPLNAEAASSKLQSSNIFTVAKRNVEGQDMLYQSLKLTNGIWVLAELRIQPGNPSCTDLELSLKCRAPEVSQHVYQAYETILKN | soluble
MMCTKEFDYLNEANQATRFQNVWLPGRYTDCNHMKRKQEEVNGEENSTWRSSSSFQ | not soluble
MGSSHHHHHHGKTIFVIVPTNEEQVAFLEALAKQDELNFDWQNPPTEPGQPVVILIPSDMVEWFLEMLKAKGIPFTVYVEEGGSENLYFQGGGGGGPFRYQISEYFERQRDGVHVELRRKAVKYYAEMERMHRRQALVNLESIQDDNAPHRLSAVLSVESIQAGHLDQEYNYWYAHERDAIRAEKLMMEIRELKAKMPADSA | not soluble
NKFECNLVHSKVPMGKFYFRSEPNNKISFISDIRGEGKEWQGATLISQNAPWGEELYRKVESSLTVTKPSRRFVFRKGAPSLMKAIAGGSWITLVLEGKDASALSEVRIPTIQIQKALGEFNACRERLPK | not soluble
MFADTCGFMNRSPEHIFGSPEIDYSDVSTGYLEDALIESGERSKRRRLLFEDPSKSFNDDDSQNDWGLHESYSCLNSQFVTPHVNTGERISGVSYCQETISNVYESPDTSVSYDKIYVREKSPTEPSSSNCGNKNKRLITKLVYPFGLVKPGGRENDVTLNDINERILMAPSRPIRHPVGDFASRPCVSGRGPGLSGKAVVALTKIQTQGRGTITIIRTKG | soluble
MSNHDQLHRYLFANHAVRGELVSVNETYQQVLANHDYPPAVQKLLGEMLVATSLLTATLKFDGDITVQLQGGDGPLTLAVINGNNRQEMRGVARVKGEISDDSTLQEMVGNGYLVITITPAQGERYQGVVALEGETIAACLENYFMQSEQLPTRLFIRTGHVADKAAAGGMLLQVLPAQERNEDEFDHLAQLTATIKAEELFTLPANEVLYRLYHQEEVTLYEPQNVSFRCTCSRQRCADALVTLADDDVTEMLEQDGNIDMHCEYCGNHYLFDAVDIATLKNGNSASSEQIH | not soluble
MRAKKRKFLQKEELSKLLQSLDMSQIGFGWFVMLAAKTGMRYAEALAITPADFDWTAQTISINKTWDYKYNKGFAKTKTLSSVRTIKIDWQIVGQFKPLIKDFPEDEPIFVEKFGDGTYKRQFNSTINNFLAVKCNETGITQISFHALRHTHASVLLAEGVSIHTISARLGHADVGVTQETYAHVLDELQKKDDQKMLSVLMQIALEHHHHHH | not soluble
MKIVMKISEVRGEILLAAADADIVGKKFREKNLHIEVYPSFYGEVRVTDEMFISSMNICTIANLVGEYTIGVAIDAGFIEKDNILYIQKVPYAQYAKIFQ | soluble
